Measurements taken from the supplement of paper PMC10724198.
± gives the standard deviation of the averaged measurements.

What follows are sequences tested on Saccharomyces cerevisiae (assay: protein stability index of tFT-peptide fusion (C-terminal peptide) (PSI (0-1 scale)); higher = more stable (slower turnover)). Settings: genetic background: wild type; temperature: 30 C.
Description: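 Multiplexed protein stability (MPS) profiling in S. cerevisiae. Random 12-aa peptides (tFT-X12 library) are fused to the C-terminus of a sfGFP-mCherry tandem fluorescent timer, after mCherry and a GGGS linker. Cells are FACS-sorted into 8 mCherry/sfGFP bins and deep-sequenced. The protein stability index (PSI) is the read-weighted bin average, scaled from 0 (unstable) to 1 (stable). Only peptides with >10 reads are reported; cells were grown at 30 °C in SC-His with glucose.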
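Note: PSI is a weighted mean of sequencing reads over stability bins, variants kept only with over 10 reads, mCherry proximal and sfGFP distal, peptide attached via GGGS linker.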

Sequence | protein stability index
FVFAYLPSYEAM | 0.729 ± 0.023
FVGAEWLLFYFS | 0.677 ± 0.069
FVPPGTTSPNTT | 0.731 ± 0.059
FVPRFPGTTINS | 0.681 ± 0.049
FVSLVGGFVGTV | 0.646 ± 0.037
FVSPVPPRRVGA | 0.704 ± 0.037
FWGCCGGVGPRG | 0.709 ± 0.0077
FWHERVSSTVKR | 0.731 ± 0.025
FWKSVMRYYFKR | 0.669 ± 0.027
FWPPPATSAAPC | 0.79 ± 0.011
FYFLFVFICLRV | 0.6642 ± 0.0062
FYIQVFTPLGGS | 0.639 ± 0.0097
FYLRRNILGQDC | 0.695 ± 0.0096
FYPLPSYFAYPI | 0.663 ± 0.022
FYSLFLPRPFLS | 0.579 ± 0.024
FYVTRIGPLDMS | 0.801 ± 0.023
GAAGASCDCTGG | 0.695 ± 0.07
GACIRLLPSFGY | 0.6434 ± 0.0041
GACWRDSHSGGD | 0.683 ± 0.023
GAEKGSVPGGDK | 0.654 ± 0.05
GAEQSTDEFIRG | 0.7058 ± 0.0012
GAGAAVHRAAPG | 0.672 ± 0.029
GAGFCSGLRGAG | 0.689 ± 0.088
GAGGVGGTSGGK | 0.675 ± 0.084
GAGLWGGRGRRW | 0.6489 ± 0.0063

Sequence | protein stability index
GAGRAVRAFCVL | 0.651 ± 0.02
GAGRGKEREYRP | 0.61356 ± 0.00019
GAGVLTLDNRRV | 0.674 ± 0.019
GAKAARTTITSG | 0.653 ± 0.026
GAKSENSLTTVQ | 0.673 ± 0.013
GALANPLGHSHL | 0.792 ± 0.11
GALGCHPGLPSP | 0.714 ± 0.025
GALIGNDGHVSG | 0.679 ± 0.027
GANLVTGKLTDG | 0.693 ± 0.036
GAQSAVLQNPPA | 0.6238 ± 0.0042
GARERRRRRRRP | 0.713 ± 0.025
GARGGGRSRGTR | 0.779 ± 0.091
GARRVVFSSVLQ | 0.774 ± 0.13
GASCRDCVTRGS | 0.745 ± 0.042
GASGGGQSSFGE | 0.669 ± 0.013
GASVWGRGTRKI | 0.6902 ± 0.0059
GATGGACGGWAG | 0.67249 ± 0.00044
GATRCQTYPAGA | 0.686 ± 0.04
GAVTNHAMASRP | 0.725 ± 0.035
GAVVLSRFRCLP | 0.639 ± 0.035
GAWASLPGLISP | 0.729 ± 0.058
GAWGFVWLGVGC | 0.658 ± 0.031
GAWWRMEQAFGV | 0.757 ± 0.034
GCADNNRLGNVV | 0.66 ± 0.011
GCAWGVKYEVIL | 0.637 ± 0.05

Sequence | protein stability index
GCDELGGRRFGR | 0.7207 ± 0.0051
GCFDLNPDLFQG | 0.688 ± 0.022
GCFLIANMCLLG | 0.665 ± 0.0035
GCLFSVLQSPSV | 0.721 ± 0.02
GCLSPSTPLWFP | 0.71454 ± 0.00037
GCLSRLCKGKVM | 0.599 ± 0.033
GCRCSSGLGGFW | 0.649 ± 0.11
GCVPGVGRDVVV | 0.719 ± 0.019
GCWHFWQFFCHY | 0.678 ± 0.024
GDHGSYAGPALL | 0.673 ± 0.047
GDITEVDISKHI | 0.75 ± 0.051
GDLGPADRQPAG | 0.639 ± 0.027
GDLYWLRNAMSL | 0.731 ± 0.012
GDSPSGKPAERT | 0.661 ± 0.065
GDTQESSHIRIY | 0.669 ± 0.051
GEAGICAGTAGG | 0.693 ± 0.041
GEALSFIFVSPP | 0.722 ± 0.033
GEAVAGRRQESP | 0.695 ± 0.073
GEDFRVLVFVRL | 0.556 ± 0.0099
GEFARSTRLAWV | 0.682 ± 0.027
GEFISRSSRIEI | 0.64 ± 0.042
GEGGGLRARQKP | 0.673 ± 0.057
GEGHGGMLDVVM | 0.686 ± 0.066
GELGGRAWVERG | 0.683 ± 0.044
GELGGRSWVERG | 0.648 ± 0.099

Sequence | protein stability index
GELPGLFRCCLM | 0.492 ± 0.072
GENLGGDVFNIG | 0.73 ± 0.0031
GENPEPRHGRGN | 0.698 ± 0.022
GEQGAPLSIRYS | 0.622 ± 0.021
GEQGVLARSDRI | 0.589 ± 0.025
GEQSYGGHSVQT | 0.642 ± 0.054
GERSGVSIRHEG | 0.726 ± 0.016
GESIIQTCLNSI | 0.845 ± 0.017
GESLSLVRIWRK | 0.625 ± 0.13
GESRPPLASPHP | 0.708 ± 0.0087
GETGGACGVWAG | 0.685 ± 0.066
GETQAAGAKYLG | 0.724 ± 0.019
GEYEHHKNKKRR | 0.7 ± 0.075
GFALRESWFIFV | 0.644 ± 0.018
GFAVGDQFIVPL | 0.687 ± 0.048
GFCLIVGVVPAL | 0.5179 ± 0.0024
GFHSVVMTFLRY | 0.63 ± 0.017
GFILTVAPNLEH | 0.648 ± 0.031
GFKMSMGCEQSS | 0.722 ± 0.076
GFLCARGAHSMT | 0.704 ± 0.013
GFLCDTVRLGCA | 0.702 ± 0.058
GFLCLISSLGFM | 0.687 ± 0.051
GFLSYWYISFPF | 0.641 ± 0.014
GFPRSPALCSQP | 0.689 ± 0.017
GFRDGVASLFVR | 0.757 ± 0.026

Sequence | protein stability index
GFRWGYIGGWRW | 0.741 ± 0.01
GFSFSSFLRGLF | 0.625 ± 0.017
GFTAERWRVKGR | 0.674 ± 0.058
GFVAGGVCSRPL | 0.715 ± 0.076
GGAAWRRGVGGV | 0.66 ± 0.025
GGAGAGHDPRRN | 0.705 ± 0.019
GGAGGRRRIGGG | 0.622 ± 0.048
GGARGEDRRAYV | 0.668 ± 0.054
GGCCLWVGFQGG | 0.703 ± 0.012
GGCGGGCGACVV | 0.701 ± 0.025
GGCGGRGGVVVR | 0.687 ± 0.02
GGCVCGPRVLGV | 0.67 ± 0.031
GGCVGVLGGWGL | 0.694 ± 0.0083
GGCVVKVRAQGP | 0.636 ± 0.01
GGEGPKGDRGRA | 0.649 ± 0.018
GGEVFGGRCSAV | 0.734 ± 0.12
GGFGSCVGHVLG | 0.735 ± 0.077
GGFRWLGGSAPA | 0.727 ± 0.072
GGFVISGDVTVG | 0.688 ± 0.038
GGFVVGGGGWLG | 0.733 ± 0.033
GGGAGGRQGCGG | 0.771 ± 0.027
GGGAGKGPQTRG | 0.676 ± 0.062
GGGAGVRKWRKG | 0.703 ± 0.058
GGGAGWGWGGRM | 0.673 ± 0.017
GGGAPADSGPGG | 0.628 ± 0.036

Sequence | protein stability index
GGGARCGLGGRM | 0.7 ± 0.053
GGGDRDGGTASG | 0.698 ± 0.073
GGGFLGGTVAAV | 0.7 ± 0.032
GGGGAGGGGGRV | 0.676 ± 0.038
GGGGAGGWGAVG | 0.67 ± 0.036
GGGGFQVAVGCR | 0.714
GGGGGGGAWKGV | 0.69 ± 0.02
GGGGGGGGGAGG | 0.674 ± 0.023
GGGGGGPGGVLK | 0.706 ± 0.092
GGGGGGRAGVWG | 0.687 ± 0.028
GGGGGGSRVWSA | 0.698 ± 0.083
GGGGGGVEPCFV | 0.668 ± 0.041
GGGGGKAGSHLG | 0.632 ± 0.01
GGGGGRAQEVQG | 0.717 ± 0.059
GGGGGRAYSWWV | 0.699 ± 0.014
GGGGGRGQGWYR | 0.651 ± 0.032
GGGGGWAGENTR | 0.715 ± 0.075
GGGGLREGGRWE | 0.743 ± 0.038
GGGGRVRDALGM | 0.696 ± 0.048
GGGGSVGGGALR | 0.651 ± 0.0088
GGGLGRVWVKLG | 0.716 ± 0.08
GGGLRGVGGLGR | 0.602 ± 0.044
GGGMCGRSGGRR | 0.706 ± 0.011
GGGRFRRDRTYE | 0.712 ± 0.028
GGGRWSAGVVEG | 0.829 ± 0.1

Sequence | protein stability index
GGGSGGVVGGIS | 0.674 ± 0.018
GGGSITTFIGDE | 0.695 ± 0.018
GGGSRLWGGGRV | 0.728 ± 0.028
GGGVATGGGGGG | 0.599 ± 0.029
GGGVGGPGGVLK | 0.675 ± 0.075
GGGVGWWVSYVG | 0.673 ± 0.012
GGGVRLMSIHRG | 0.662 ± 0.012
GGGVSFWLGVVA | 0.6211 ± 0.0026
GGGWCESRGDGA | 0.655 ± 0.085
GGGWGSRGVCLG | 0.65 ± 0.11
GGGWRGRRVADF | 0.701 ± 0.043
GGHGRREEKGQR | 0.6845 ± 0.0058
GGHLTMMFGRLF | 0.713 ± 0.019
GGKWGVAGGGPW | 0.738 ± 0.074
GGLGLVESVFVI | 0.67 ± 0.052
GGLGVAGAGVVC | 0.655 ± 0.042
GGPASSGLMDGY | 0.698 ± 0.0062
GGPGGGGVSDGM | 0.804 ± 0.14
GGPIQAGLSFPG | 0.685 ± 0.025
GGPRGPPMLIWE | 0.738 ± 0.037
GGRFGMWRGGQA | 0.7245 ± 0.0064
GGRGAVSGIVRK | 0.613 ± 0.014
GGRGRGARPGGR | 0.647 ± 0.027
GGRGSRWAGPRC | 0.669 ± 0.038
GGRPIRNTTREG | 0.655 ± 0.022

Sequence | protein stability index
GGRREGRGFNDG | 0.676 ± 0.025
GGRRYSRPGQKH | 0.661 ± 0.018
GGRSSGRLMGKE | 0.712 ± 0.013
GGRTRPGGLSRP | 0.678 ± 0.035
GGSFRLLAVVFP | 0.635 ± 0.044
GGSRRANRQMRK | 0.7148 ± 0.0045
GGSRRRAVGAGV | 0.709 ± 0.057
GGSSEKVLCIWR | 0.7246 ± 0.0014
GGTCWEGEVVDV | 0.641 ± 0.029
GGTKGKAGGEAA | 0.672 ± 0.043
GGVFREEGAAER | 0.693 ± 0.021
GGVGSMITWRVG | 0.689 ± 0.082
GGVGWWVGVVWG | 0.624 ± 0.071
GGVLDGVGVRMG | 0.69 ± 0.054
GGVVVGRGVCVF | 0.626 ± 0.032
GGVVVRGRASAR | 0.717 ± 0.02
GGWCWGWGPGSG | 0.687 ± 0.056
GGWGGVCGACVV | 0.702 ± 0.035
GGWGRKCGGSGG | 0.711 ± 0.018
GGWGWEGRGGSG | 0.677 ± 0.014
GGWPLSPSFGWG | 0.571
